Tests used:
[1] = target: T1, MUC5AC truncation construct 1-85 (human, UniProt P98088 1734-1794); experiment: immunofluorescence, transfected 293T cells
T1 construct: also called 85 residue construct
T1 chain: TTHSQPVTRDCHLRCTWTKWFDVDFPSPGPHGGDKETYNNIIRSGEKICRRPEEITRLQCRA
Protocol: (§1) Cells were transiently transfected with 2 μg of MUC5AC constructs of Table 8 with LIPOFECTAMINE®. Cells were grown for about 72 hours, fixed with about 4% PFA in PBS, washed with PBS, permeabilized with about 0.2% […] in PBS and washed with PBS. Cells were then blocked with about 1% BSA in PBS, and about 2 μg/ml NPC-1 antibody was added to sample wells and about 2 μg/ml of an Isotype control was added for 1 hour at room temp. Cells were washed with PBS and second anti human-FITC antibody (1:500) was added to all wells and to the second antibody control wells. Cells were washed and mounted on slides with DAPI hard mount. Cover slides were allowed to sit over night at about 4° C. Slides were visualized with a Nikon Eclipse Ti microscope with an Andor camera. At least 3 random fields were counted per transfection.
(§2) This strategy was used to identify an about 15 amino acid-region that contains a NPC-1 epitope: […] (SEQ ID NO: 37). […] This is a repetitive sequence that also has some changes in it which are also probable scaffold for the binding sites for the NPC-1C antibody. This repetitive sequence and variations can be found in the longer deletions of MUC5AC and MUC5AC itself.

[2] = target: T2, MUC5AC truncation construct 1-136 (human, UniProt P98088 3212-4055); experiment: immunofluorescence, transfected 293T cells
T2 construct: also called 136 residue construct
T2 sequence: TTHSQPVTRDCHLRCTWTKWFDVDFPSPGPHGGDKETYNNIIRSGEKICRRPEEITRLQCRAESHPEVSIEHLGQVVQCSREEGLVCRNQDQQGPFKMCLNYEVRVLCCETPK
Protocol: as §1, §2

binding result [1]: no binding (tested: about 2 µg/ml) | binding result [2]: no binding (tested: about 2 µg/ml)
B1: NPC-1C (antibody, V domains shown)
VH: QVQLKESGPDLVAPSQSLSITCTVSGFSLSKFGVNWVRQPPGKGLEWLGVIWGDGSTSYNSGLISRLSISKENSKSQVFLKLNSLQADDTATYYCVKPGGDYWGHGTSVTVSS
VL: QVVLTQSPVIMSASPGEKVTMTCSASSSISYMYWYQQKPGTSPKRWIYDTSKLASGVPARFSGSGSGTSYSLTISNMEAGDAATYYCHQRDSYPWTFGGGTNLEIK
notes: Chimeric antibody with human IgG1 constant regions, made in CHO cells; used plain, biotin- or FITC-labelled, or coupled to beads; also called NEO-101; ensituximab

Source: patent publication US20190322720A1 (PRECISION BIOLOGICS, published 2019)
